{
  "source": "paper PMC9879077",
  "key": {"c-Fos;c-Jun [1]": {"target": "T1, c-Fos;c-Jun (mouse (cDNA from ST2 cells);mouse (cDNA …, UniProt P01101;P05627 1-380;1-334, |))", "T1 sequence (P01101 whole entry, chain 1 of 2)": "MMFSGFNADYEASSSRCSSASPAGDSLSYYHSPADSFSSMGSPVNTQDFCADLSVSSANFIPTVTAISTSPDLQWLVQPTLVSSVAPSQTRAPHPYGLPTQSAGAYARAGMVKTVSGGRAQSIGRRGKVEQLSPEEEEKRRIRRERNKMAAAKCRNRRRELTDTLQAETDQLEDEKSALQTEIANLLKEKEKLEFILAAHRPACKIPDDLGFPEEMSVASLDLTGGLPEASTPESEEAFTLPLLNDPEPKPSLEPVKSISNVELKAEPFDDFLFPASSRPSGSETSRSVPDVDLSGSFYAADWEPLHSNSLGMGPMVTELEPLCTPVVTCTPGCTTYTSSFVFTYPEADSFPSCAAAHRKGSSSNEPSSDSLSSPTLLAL", "T1 sequence (P05627 whole entry, chain 2 of 2)": "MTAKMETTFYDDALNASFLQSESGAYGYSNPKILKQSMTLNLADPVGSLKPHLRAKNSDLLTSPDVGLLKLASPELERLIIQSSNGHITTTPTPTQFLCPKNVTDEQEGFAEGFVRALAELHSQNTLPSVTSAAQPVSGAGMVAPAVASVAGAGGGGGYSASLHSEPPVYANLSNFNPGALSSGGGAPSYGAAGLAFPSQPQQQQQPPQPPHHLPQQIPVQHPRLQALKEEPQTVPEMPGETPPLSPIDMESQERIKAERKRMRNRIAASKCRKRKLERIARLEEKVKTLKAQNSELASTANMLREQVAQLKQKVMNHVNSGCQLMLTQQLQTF", "assay": "EMSA"}, "c-Fos;c-Jun [2]": {"target": "T1, c-Fos;c-Jun", "assay": "EMSA", "remark": "listed apart in the source"}},
  "note": "Read-outs that look alike come from different tables or passages of the source.",
  "data": [
    {"binder": "Oligo incl TRE (dsDNA) DNA 1: TGAGTCAATGAGTCAGCTGACTCATTGACTCA DNA 2: GGTGAGTCAATGAGTCAGCTGACTCATTGACTCA", "values": [
      {"measurement": "binding result", "setting": "c-Fos;c-Jun [1]", "result": "binds"}
    ]},
    {"binder": "Oligo incl mutant TRE (dsDNA) DNA 1: TGTGACAATGTGACAGCTGTCACATTGTCACA DNA 2: GGTGTGACAATGTGACAGCTGTCACATTGTCACA", "values": [
      {"measurement": "binding result", "setting": "c-Fos;c-Jun [2]", "result": "no binding"}
    ]}
  ]
}
